The results in this text go back to patent US20130101555A1 (CYTOMX THERAPEUTICS, published 2013).

B1: peptide derived from Jagged1 displayed by clone Jag-ecpX3 (peptide)
peptide: RVTCDDYYYGFGCNKFGRPA
notes: also called Jagged1-derived peptide; fragment of JAG1
B2: PHB3324 (peptide)
peptide: FPLNTFDLVHELLSR
B3: PHB3337 (peptide)
peptide: TVLVIPDLHYLYVDR
B4: PHB3486 (peptide)
peptide: ELTQLLNALVDVRNC
B5: PHB3340 (peptide)
peptide: FINNVETALDTIYNL
B6: PHB3482 (peptide)
peptide: TDNALFLETVQHYLY
B7: PHB3479 (peptide)
peptide: EPKCSFCSPLIVPSP
B8: PHB3343 (peptide)
peptide: ATMYAYLERLEAILS
B9: PHB3327 (peptide)
peptide: PYTFVEQVEYWLHAT
B10: PHB3478 (peptide)
peptide: DFINSMRSHLQSSDQ
B11: PHB3334 (peptide)
peptide: FCYIAAFSAMQRQSC
B12: PHB3489 (peptide)
peptide: ATCYIINHWVERYII
B13: PHB3352 (peptide)
peptide: CFPTVVWRELYNLYG
B14: PHB3333 (peptide)
peptide: ACVIHFLDRISNILE
B15: PHB3341 (peptide)
peptide: SAKHLHPGRLPPMTK
B16: PHB3476 (peptide)
peptide: NLDFYLNHLYNTLAG
B17: PHB3349 (peptide)
peptide: IYPLDALLRHLNSLC
B18: PHB3325 (peptide)
peptide: FLNDIHRFLHWTDLM
B19: PHB3336 (peptide)
peptide: PLYLPEIGWMFGLPT
B20: PHB3487 (peptide)
peptide: LLSSFVETMSSILTC
B21: PHB3485 (peptide)
peptide: CYPSISWLFADAPRN
B22: PHB3488 (peptide)
peptide: YLLRLPSLEELWGPS
B23: PHB3480 (peptide)
peptide: PNCIESFLSSIHDSL

The first test deals with T1, human Notch1 EGF-like domains 11-13 fused to the Fc domain of human IgG1 (hN111-13-hFc) (human, UniProt P46531 411-526, biotinylated with NHS-PEG-biotin (hN111-13-hFc-biot) or labeled with DyLight-488, depending on the round).
T1 construct: also called hN111-13-hFc-biot; hN111-13-hFc-Dy488; not shown: Fc domain of human IgG1 as encoded by pINFUSE-hIgG1-Fc2 (InvivoGen)
T1 sequence (P46531 411-526 limits assumed): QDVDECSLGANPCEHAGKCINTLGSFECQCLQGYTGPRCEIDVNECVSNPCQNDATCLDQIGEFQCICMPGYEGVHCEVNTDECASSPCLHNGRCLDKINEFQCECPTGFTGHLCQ
Briefly: flow cytometry of induced E. coli clones, 100 nM hN111-13-hFc-biot then 10 nM SAPE, normalized to scaffold display level. As to the method:
Individual clones were tested by flow cytometry for hN1₁₁₋₁₃-hFc binding by labeling induced cells in TBS-Ca-B with (A.) 50 nM hN1₁₁₋₁₃-hFc-biot or (B.) 100 nM […] hN1₁₁₋₁₃-hFc-biot, followed by 10 nM Streptavidin-R-phycoerythrin (SAPE). Cells were separately labeled with 27 nM Ypet-Mona to measure peptide display level. The display scaffold alone (ecpX3) was used as a negative control.
Regarding B1, the binding result is recorded as “binds”.

Another test concerns the target T1, human Notch1 EGF-like domains 11-13 …. Briefly: bacterial display library screen, magnetic selection and FACS with labeled hN111-13-hFc. How it is done:
Following two rounds of magnetic selection, the remaining rounds of screening were performed on a Becton Dickinson FACSAria flow cytometer. In the first round of FACS, induced cells were incubated with 500 nM hN1₁₁₋₁₃-hFc-biot, 10 μM hIgG in TBS-Ca-B, washed, and incubated with fluorescent secondary label neutravidin-phycoerythrin (NAPE) (Invitrogen) at 10 nM, before sorting by flow cytometry for fluorescently labeled cells. Cells amplified from overnight growth of the first round FACS population were induced and subjected to a second round of sorting with the same labeling conditions as in the first round or, alternatively, using 50 nM hN1₁₁₋₁₃-hFc-biot. A third round of sorting was conducted as in the second round but with 100 nM hN1₁₁₋₁₃-hFc-biot and the addition of 27 nM Ypet-Mona-SH3 in the secondary labeling step. Mona-SH3 binds an epitope on the C-terminus of the display scaffold, independent of the random peptide on the N-terminus. Cells were then sorted based on the ratio of 576 nm fluorescence (i.e. NAPE binding) to 530 nm fluorescence (i.e. Ypet-Mona binding) in order to normalize for differences in scaffold display level on individual cells.
Alternatively, third round sorting was conducted by incubating induced cells with 10 nM or alternatively, 50 nM unbiotinylated hN1₁₁₋₁₃-hFc in TBS-Ca-B before washing, labeling with fluorescent secondary 20 μg/ml anti-hIgG-DyLight-488, and sorting based on 530 nm fluorescence. Third round sorting was also conducted using either 50 nM or 250 nM hN1₁₁₋₁₃-hFc that had been fluorescently labeled with DyLight-488 (Thermo Pierce) (hN1₁₁₋₁₃-hFc-Dy488), and 10 μM hIgG, with no secondary labeling.
Regarding B2, the binding result is reported as “binds”.
The same measure, in the same setting: the same measure for B3: “binds”; for B4: “binds”.
Turning to B5, the binding result is recorded as “binds”.
Same read-out and setting: next, B6: “binds”.
Take B7: the binding result is recorded as “binds”.
Still for that read-out and setting: next, B8: “binds”; B9: “binds”.
The same measure, in the same setting: next, B10: “binds”; B11: “binds”; B12: “binds”.
On the same count and under the same terms, the same measure for B13: “binds”; for B14: “binds”; for B15: “binds”.
As to B16, the binding result is reported as “binds”.
In the case of B17, the binding result is reported as “binds”.
For B18, the binding result is “binds”.
With B19, the binding result is “binds”.
On to B20, for which the binding result is “binds”.
Turning to B21, the binding result is listed as “binds”.
The same measure, in the same setting: the same measure for B22: “binds”; for B23: “binds”.
